This note sets out measurements from article PMC4703070, “cryo-EM structures of the E. coli replicative DNA polymerase reveal its dynamic interactions with the DNA sliding clamp, exonuclease and τ” (eLife, 2015).

For data set [1], the target named is PolIIIα (clamp-binding motif QADMF to QLDLF);DNA sliding clamp β;exonuclease ε (clamp-binding motif QTSMAF to … (Escherichia coli;Escherichia …, UniProt P10443;P0A988;P03007;P06710 1-1160;1-366;1-243;500-643, A921L;M923L||T183L;M185L;A186P;F187L|)). Put plainly: cryo-EM; 3 mM Mg acetate; 8.0 Å DNA-bound map (7.3 Å for class without visible tail/τ500); EMSA: 20 mM Tris pH 7.5, 4% glycerol, 5 mM DTT, 40 μg/ml BSA, 40 mM K glutamate, 10 min room temperature, native 6% gel; cryo-EM: 25 mM Hepes pH 7.5, 50 mM K glutamate, 3 mM Mg acetate, 2 mM DTT, ~4 μM complex + 20 μM DNA, room temperature, then Tween 20. As to conditions: protein: recombinant;recombinant;recombinant;recombinant; tags: ;;;His-tag removed (HRV 3C); copies: 1;2;1;1; 25 bp duplex, 5' overhang 4 nt on template strand.

The target in data set [2] is T1, E. coli DNA polymerase III α with improved clamp binding motif (PolIIIα^QLDLF) (E. coli, UniProt P10443 1-1160, 920-924 QADMF to QLDLF).
T1 construct: DNA polymerase III subunit α (PolIIIα), E. coli; It says that His-tags were removed with 3C protease but not which of the proteins carried one; PDB 2HNH lacks the C-terminal tail; source: E. coli (DE3) BL21, purified (as described in Toste Rêgo et al., 2013)
In words: cryo-EM structure; four-protein complex assembled at 15 μM, gel filtration in 25 mM Hepes pH 7.5, 50 mM potassium glutamate, 3 mM magnesium acetate, 2 mM DTT; peak fraction (~4 μM) with 20 μM 25 bp DNA substrate; DNA-free (8.3 Å), DNA-bound (8.0 Å) and DNA-bound without tail (7.3 Å) classes from a single data set; crystal and NMR structures fitted as rigid bodies. As to conditions: both partners purified. (In general: Size exclusion chromatography separates by hydrodynamic size, large species first.)

Data set [3] has as its target Pol I (Klenow fragment) (Escherichia coli, UniProt P00582 324-928). Put plainly: EMSA; 2.5 μM protein, 5 nM DNA; EMSA: 20 mM Tris pH 7.5, 4% glycerol, 5 mM DTT, 40 μg/ml BSA, 40 mM K glutamate, 10 min room temperature, native 6% gel; cryo-EM: 25 mM Hepes pH 7.5, 50 mM K glutamate, 3 mM Mg acetate, 2 mM DTT, ~4 μM complex + 20 μM DNA, room temperature, then Tween 20. As to conditions: protein: recombinant; label: 6-FAM at 5' end of primer strand; 25 bp duplex, 5' overhang 4 nt on template strand. On the technique in general: Mobility shift assays separate free from complexed probe on a gel.

In data set [4] the target is T2, Pol IV (Escherichia coli, UniProt Q47155 1-351).
T2 sequence: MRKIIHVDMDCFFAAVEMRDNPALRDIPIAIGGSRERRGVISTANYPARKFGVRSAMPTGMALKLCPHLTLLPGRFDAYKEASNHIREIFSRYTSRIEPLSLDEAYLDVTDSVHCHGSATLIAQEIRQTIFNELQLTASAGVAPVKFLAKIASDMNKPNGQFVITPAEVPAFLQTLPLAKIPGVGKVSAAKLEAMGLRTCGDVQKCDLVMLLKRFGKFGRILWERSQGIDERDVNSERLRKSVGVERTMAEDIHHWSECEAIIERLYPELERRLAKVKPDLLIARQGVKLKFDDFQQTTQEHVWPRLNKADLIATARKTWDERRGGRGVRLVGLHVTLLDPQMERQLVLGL
The data set is described as above. As to conditions: protein: recombinant; label: 6-FAM at 5' end of primer strand; 25 bp duplex, 5' overhang 4 nt on template strand.

Data set [5] addresses T3, E. coli DNA sliding clamp β (E. coli, UniProt P0A988 1-366).
T3 construct: DNA polymerase III β subunit (DNA sliding clamp), E. coli; dimeric; It says that His-tags were removed with 3C protease but not which of the proteins carried one; also called β subunit; source: E. coli (DE3) BL21, purified (as described in Toste Rêgo et al., 2013)
In words: cryo-EM structure; four-protein complex assembled at 15 μM, gel filtration in 25 mM Hepes pH 7.5, 50 mM potassium glutamate, 3 mM magnesium acetate, 2 mM DTT; peak fraction (~4 μM) with 20 μM 25 bp DNA substrate; DNA-free (8.3 Å), DNA-bound (8.0 Å) and DNA-bound without tail (7.3 Å) classes from a single data set; crystal and NMR structures fitted as rigid bodies. Particulars: both partners purified.

B1: 25 bp primer-template with 4 nt overhang (cryo-EM) (dsDNA)
DNA 1: TCAGGAGTCCTTCGTCCTAGTACTACTCC
DNA 2: GGAGTAGTACTAGGACGAAGGACTC
For the molecule B1, the binding result in data set [1] is reported as “binds”.

B2: τ500 (the polymerase-binding domain of τ: residues 500–643) (domain or fragment, E. coli, UniProt P06710 500-643, looked up)
chain: ALEHEKTPELAAKLAAEAIERDPWAAQVSQLSLPKLVEQVALNAWKEESDNAVCLHLRSSQRHLNNRGAQQKLAEALSMLKGSTVELTIVEDDNPAVRTPLEWRQAIYEEKLAQARESIIADNNIQTLRRFFDAELDEESIRPI
notes: PDB 2AYA (NMR) holds residues 500-621 only; His-tags were removed with human rhinovirus 3C protease; also called τc; C-terminal domain of the clamp loader subunit τ; source: E. coli (DE3) BL21, purified (Histrap HP, Resource S, Superdex 75)
B2: in data set [2], the binding result was “binds”.

B3: 25 bp primer-template with 4 nt overhang (EMSA) (dsDNA)
DNA 1: TCAGGAGTCCTTCGTCCTAGTACTACTCC
DNA 2: GGAGTAGTACTAGGACGAAGGACTC
modifications: phosphorothioate at 3' terminal bond (primer; strand implied)
In the case of B3, the binding result in data set [3] and in data set [4] was “binds” in each case.

B4: E. coli proofreading exonuclease ε with improved clamp binding motif (exonuclease^QLSLPL) (enzyme, UniProt P03007 1-243, looked up)
chain: MSTAITRQIVLDTETTGMNQIGAHYEGHKIIEIGAVEVVNRRLTGNNFHVYLKPDRLVDPEAFGVHGIADEFLLDKPTFAEVADEFMDYIRGAELVIHNAAFDIGFMDYEFSLLKRDIPKTNTFCKVTDSLAVARKMFPGKRNSLDALCARYEIDNSKRTLHGALLDAQILAEVYLAMTGGQLSLPLAMEGETQQQQGEATIQRIVRQASKLRVVFATDEEIAAHEARLDLVQKKGGSCLWRA
notes: DNA polymerase III subunit ε (proofreading exonuclease), E. coli; residues 190-207 are a missing loop; source: E. coli (DE3) BL21, purified (as described in Toste Rêgo et al., 2013)
As to B4, the binding result in data set [2] and in data set [5] was “binds” throughout.
